According to patent US20240010748A1:

Biological target: murine Claudin 18.2 (mCLDN18.2) on stably-transfected HEK293 cells (murine) (UniProt P56857)
Assay: FACS on HEK293-mCLDN18.2 cells

- MFI (Max): 543 MFI
B1: h160C9AA (antibody, human IgG1, lambda, L234A L235A, V domains shown)
VH: EVKLVESGGGLVQPGGSLKLSCAASGFTFNTYAMNWVRQAPGKGLEWVARIRSKYNNYATYYADSVKDRFTISRDDAKNTLYLQMNNLRTEDTAVYYCVRHGNFGNSYVSWFAYWGQGTLVTVSS
VL: QAVVTQEPSLTVSPGGTVTLTCRSSTGAVTTSNYANWVQQKPGQAPRGLIGGTNKRAPGTPARFSGSLLGGKAALTLSGAQPEDEAEYYCALWYSNLWVFGGGTKLTVLG
